Results: US20030186844A1 (MERCK, published 2003)
Read-outs that look alike come from different tables or passages of the source. Where no end group is shown, it is not given here. [ ]: non-standard residue; d: D form. The star is where a group is joined. Octanoyl = CCCCCCCC(=O)*; Dap = NC[C@H](N)C(=O)O

B1: compound 12 (peptide)
peptide: GSXFLSPEHQRVQQRKESKKPPAKLQPR
modifications: X^b at position 3: 2,3-di-amino-propionic acid in place of Ser3, its beta-amino group acylated with n-octanoic acid
B2: compound 21 (peptide)
peptide: GSS(Octanoyl)FL-NH2
modifications: N-terminus assumed
SMILES: CCCCCCCC(=O)OC[C@H](NC(=O)[C@H](CO)NC(=O)CN)C(=O)N[C@@H](Cc1ccccc1)C(=O)N[C@@H](CC(C)C)C(N)=O
B3: compound 19 (peptide)
peptide: GSS(Octanoyl)FLSPEHQRVQQRKES-NH2
modifications: N-terminus assumed
SMILES: CCCCCCCC(=O)OC[C@H](NC(=O)[C@H](CO)NC(=O)CN)C(=O)N[C@@H](Cc1ccccc1)C(=O)N[C@@H](CC(C)C)C(=O)N[C@@H](CO)C(=O)N1CCC[C@H]1C(=O)N[C@@H](CCC(=O)O)C(=O)N[C@@H](Cc1c[nH]cn1)C(=O)N[C@@H](CCC(N)=O)C(=O)N[C@@H](CCCNC(=N)N)C(=O)N[C@H](C(=O)N[C@@H](CCC(N)=O)C(=O)N[C@@H](CCC(N)=O)C(=O)N[C@@H](CCCNC(=N)N)C(=O)N[C@@H](CCCCN)C(=O)N[C@@H](CCC(=O)O)C(=O)N[C@@H](CO)C(N)=O)C(C)C
B4: compound 18 (peptide)
peptide: GSS(Octanoyl)FLSPEHQRVQQRKESKKPPA-NH2
modifications: N-terminus assumed
SMILES: CCCCCCCC(=O)OC[C@H](NC(=O)[C@H](CO)NC(=O)CN)C(=O)N[C@@H](Cc1ccccc1)C(=O)N[C@@H](CC(C)C)C(=O)N[C@@H](CO)C(=O)N1CCC[C@H]1C(=O)N[C@@H](CCC(=O)O)C(=O)N[C@@H](Cc1c[nH]cn1)C(=O)N[C@@H](CCC(N)=O)C(=O)N[C@@H](CCCNC(=N)N)C(=O)N[C@H](C(=O)N[C@@H](CCC(N)=O)C(=O)N[C@@H](CCC(N)=O)C(=O)N[C@@H](CCCNC(=N)N)C(=O)N[C@@H](CCCCN)C(=O)N[C@@H](CCC(=O)O)C(=O)N[C@@H](CO)C(=O)N[C@@H](CCCCN)C(=O)N[C@@H](CCCCN)C(=O)N1CCC[C@H]1C(=O)N1CCC[C@H]1C(=O)N[C@@H](C)C(N)=O)C(C)C

Columns and labels:
human GHS receptor 1a [1] = molecular target: T1, human GHS receptor 1a (human, UniProt Q92847 1-366); assay: cell-based or functional assay
human GHS receptor 1a [2] = molecular target: T1, human GHS receptor 1a; assay: competitive filter binding vs [35S]-MK-677, membranes of HEK 293-AEQ17 cells transfected with human GHS receptor
Method: (§1) Binding of [³⁵S]-MK-677 to crude membranes prepared from HEK 293-aequorin stable cell lines was performed as described in Chen et al., Bioorg. Med. Chem. Lett. 1996, 6, 2163-2169, and Howard et al., Science 1996, 273, 974-977. Prior to the binding assay, the HEK 293-AEQ17 cells (8×10⁵ cells plated 18 hours before transfection in a T75 flask) were transfected with 22 μg of human GHS receptor plasmid using 264 μg lipofectamine.

human GHS receptor 1a [3] = molecular target: T1, human GHS receptor 1a; assay: as above; remark: listed apart in the source
Method: as §1

human GHS receptor 1a [4] = molecular target: T1, human GHS receptor 1a; assay: cell-based or functional assay; remark: listed apart in the source

T1 sequence (Q92847 whole entry): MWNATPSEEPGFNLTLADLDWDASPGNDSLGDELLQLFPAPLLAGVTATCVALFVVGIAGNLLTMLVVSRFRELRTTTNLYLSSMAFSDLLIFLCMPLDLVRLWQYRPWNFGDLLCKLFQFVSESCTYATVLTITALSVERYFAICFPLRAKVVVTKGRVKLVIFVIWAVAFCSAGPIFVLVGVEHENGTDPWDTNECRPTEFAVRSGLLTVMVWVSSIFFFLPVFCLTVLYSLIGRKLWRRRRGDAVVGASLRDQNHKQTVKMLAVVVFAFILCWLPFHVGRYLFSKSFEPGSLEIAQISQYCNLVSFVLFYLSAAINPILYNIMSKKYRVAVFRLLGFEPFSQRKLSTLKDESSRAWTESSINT

| Binder | % activation at 10 µM relative to ghrelin (human GHS receptor 1a [1]) [%] | Functional Assay EC50 (aequorin bioluminescence) (human GHS receptor 1a [1]) [nM] | IC50 (human GHS receptor 1a [2]) [nM] | IC50 (human GHS receptor 1a [3]) [nM] | % activation at 10 µM relative to ghrelin (human GHS receptor 1a [4]) [%] | Functional Assay EC50 (aequorin bioluminescence) (human GHS receptor 1a [4]) [nM] |
| --- | --- | --- | --- | --- | --- | --- |
| GS[Dap](Octanoyl)FLSPEHQRVQQ [compound 14] | 102 | 38 | 8 | – | – | – |
| GSS(Octanoyl)FLSPEHQRVQQ [compound 13] | 97 | 17 | 9.6 | 9.6 | 97 | 17 |
| B1 | – | 31 | 0.42 | – | – | – |
| B2 | – | – | – | 55 | 96 | 11.5 |
| B3 | – | – | – | 0.77 | 92 | 22 |
| B4 | – | – | – | 0.16 | 100 | 15 |
